Results from patent US20170008955A1 (CNJ, published 2017).
Substitutions are numbered along the chain they refer to.

B1: hu5E3-IgG1 (antibody, V domains shown)
VH: QVQLQQSGPEVKKPGASVKISCKASGYIFTSYYIQWVIHAPGQGLEWIGWIYPGNVNTKYNEKFKGKATLTADKSSSTAYMELSSLTSEDTAVYFCARMDYEAHYWGQGTTVTVSS
VL: DIQMTQSPSSLSASVGDRVTITCRASQEISGYLTWLQQKPEGAIKRLIYAASTLDSGVPKRFSGSRSGSDYSLTISSLQPEDFATYNCLQYANYPRTFGGGTKLEIK
notes: human IgG1/kappa; also called humanized 5E3 IgG1; IHA variant
B2: hu5E3-IgG2 (antibody, V domains shown)
VH: B1 VH
VL: B1 VL
notes: human IgG2/kappa; also called humanized 5E3 IgG2
B3: murine monoclonal antibody 5E3 (antibody, V domains shown)
VH: B1 VH with V11L, K12V, K19R, A40R, E82Q, S85R, T91S, V112L
VL: B1 VL with V15L, D17E, T20S, I21L, E41D, A43T, Q79E, P80S, T85D
notes: mouse antibody of the 5E3 hybridoma; also called murine 5E3; m5E3
B4: rehu5E3-IgG4 (antibody, V domains shown)
VH: B1 VH with K12V, T87R, T91S, T111L
VL: B1 VL with V15L, I21L, G42K, S72T, T85D
notes: human IgG4/kappa; also called IgG4 rehu version

molecular target: T1, cSNK:BSA conjugate (bovine, head-to-tail cyclized; conjugated to BSA carrier); experiment: BLI 2:1 fit, site 2 (KD2); 50 nM row
T1 construct: also called BSA-cSNK
T1 sequence (P02769 25-607 limits assumed): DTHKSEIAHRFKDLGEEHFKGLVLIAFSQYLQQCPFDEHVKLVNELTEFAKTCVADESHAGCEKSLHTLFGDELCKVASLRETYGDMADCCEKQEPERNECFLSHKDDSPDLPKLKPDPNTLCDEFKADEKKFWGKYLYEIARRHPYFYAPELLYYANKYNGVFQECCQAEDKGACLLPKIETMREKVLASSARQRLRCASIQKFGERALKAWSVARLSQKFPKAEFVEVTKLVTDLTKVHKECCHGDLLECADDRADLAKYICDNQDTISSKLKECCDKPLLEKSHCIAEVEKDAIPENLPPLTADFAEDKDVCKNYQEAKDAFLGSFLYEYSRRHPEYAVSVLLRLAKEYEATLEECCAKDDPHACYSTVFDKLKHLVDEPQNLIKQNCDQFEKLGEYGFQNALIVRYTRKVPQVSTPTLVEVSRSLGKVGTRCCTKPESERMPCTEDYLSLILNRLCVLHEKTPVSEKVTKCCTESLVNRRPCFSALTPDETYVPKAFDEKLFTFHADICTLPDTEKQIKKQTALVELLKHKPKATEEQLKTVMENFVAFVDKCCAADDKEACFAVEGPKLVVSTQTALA
Procedure: (§1) Biolayer interferometry (Octet […], ForteBio) was used to qualitatively/quantitatively assess the interactions between humanized versions of 5E3 and cSNK:BSA conjugate. […] MAbs were loaded onto sensors and then washed in PBST. Each sensor was associated with one of several cSNK:BSA standards (100 nM to 0 nM) and then washed in PBST. Data was processed statistically using ForteBio Data Analysis software to determine the strength of antigen-antibody binding (KD). For each mAb analyzed, a 2:1 model provided the “best fit”.

Binder	Kd
B1	1.82 nM
B2	6.39 nM
B3	1.59 nM
B4	3.94 nM

molecular target: T1, cSNK:BSA conjugate; experiment: BLI 2:1 fit, site 2 (KD2); 6.25 nM row
Procedure: as §1

Binder	Kd
B1	1.82 nM
B2	6.39 nM
B3	1.59 nM
B4	3.94 nM

molecular target: T1, cSNK:BSA conjugate; experiment: BLI 2:1 fit, site 2 (kon2); 12.5 nM row
Procedure: as §1

Binder	kon
B1	6.56e+06 M⁻¹ s⁻¹
B2	5.28e+06 M⁻¹ s⁻¹
B3	1.42e+07 M⁻¹ s⁻¹
B4	4.44e+06 M⁻¹ s⁻¹

molecular target: T1, cSNK:BSA conjugate; experiment: BLI 2:1 fit, site 2 (kdis2); 3.13 nM row
Procedure: as §1

Binder	koff
B1	0.012 s⁻¹
B2	0.0338 s⁻¹
B3	0.0226 s⁻¹
B4	0.0175 s⁻¹

molecular target: T1, cSNK:BSA conjugate; experiment: BLI 2:1 fit, site 1; 50 nM row
Procedure: as §1

Binder	Kd	koff	kon
B1	0.463 nM	0.000825 s⁻¹	1.78e+06 M⁻¹ s⁻¹
B2	1.18 nM	0.000762 s⁻¹	644000 M⁻¹ s⁻¹
B3	0.33 nM	0.000428 s⁻¹	1.29e+06 M⁻¹ s⁻¹
B4	–	0.000386 s⁻¹	692000 M⁻¹ s⁻¹

molecular target: T1, cSNK:BSA conjugate; experiment: BLI 2:1 fit, site 2 (kdis2); 12.5 nM row
Procedure: as §1

Binder	koff
B1	0.012 s⁻¹
B2	0.0338 s⁻¹
B3	0.0226 s⁻¹
B4	0.0175 s⁻¹

molecular target: T1, cSNK:BSA conjugate; experiment: BLI 2:1 fit, site 2 (kdis2); 100 nM row
Procedure: as §1

Binder	koff
B2	0.0338 s⁻¹
B3	0.0226 s⁻¹
B4	0.0175 s⁻¹

molecular target: T1, cSNK:BSA conjugate; experiment: BLI 2:1 fit, site 2 (KD2); 1.56 nM row
Procedure: as §1

Binder	Kd
B1	1.82 nM
B3	1.59 nM
B4	3.94 nM

molecular target: T1, cSNK:BSA conjugate; experiment: BLI (Octet), 1:1 model, BSA-cSNK
Procedure: Biolayer interferometry (Octet Red92, ForteBio) was used to qualitatively/quantitatively assess the interactions between humanized 5E3 and Δ5E3 mAbs to the cSNK:BSA conjugate. […] MAbs were loaded onto sensors and then washed in PBST. Each sensor was associated with one of several cSNK:BSA standards (100 nM to 0 nM) and then washed in PBST. Data was processed statistically using ForteBio Data Analysis software to determine the strength of antigen-antibody binding (KD). For each mAb analyzed, a 1:1 model provided the “best fit”.

Binder	Kd
B1	2.01 nM
B2	0.326 nM

molecular target: T1, cSNK:BSA conjugate; experiment: BLI 2:1 fit, site 2 (kon2); 100 nM row
Procedure: as §1

Binder	kon
B2	5.28e+06 M⁻¹ s⁻¹
B3	1.42e+07 M⁻¹ s⁻¹
B4	4.44e+06 M⁻¹ s⁻¹

molecular target: T1, cSNK:BSA conjugate; experiment: BLI 2:1 fit, site 2 (kdis2); 50 nM row
Procedure: as §1

Binder	koff
B1	0.012 s⁻¹
B2	0.0338 s⁻¹
B3	0.0226 s⁻¹
B4	0.0175 s⁻¹

molecular target: T1, cSNK:BSA conjugate; experiment: BLI 2:1 fit, site 2 (kon2); 6.25 nM row
Procedure: as §1

Binder	kon
B1	6.56e+06 M⁻¹ s⁻¹
B2	5.28e+06 M⁻¹ s⁻¹
B3	1.42e+07 M⁻¹ s⁻¹
B4	4.44e+06 M⁻¹ s⁻¹

molecular target: T1, cSNK:BSA conjugate; experiment: BLI 2:1 fit, site 2 (KD2); 12.5 nM row
Procedure: as §1

Binder	Kd
B1	1.82 nM
B2	6.39 nM
B3	1.59 nM
B4	3.94 nM

molecular target: T1, cSNK:BSA conjugate; experiment: BLI (Octet RED96), 2:1 kinetics, KD1, summary table
Procedure: as §1
(§2) Table 7 summarizes the affinity constants of humanized 5E3 IgG1, IgG2 and IgG4 constructs. The KD ranges were determined using 2:1 kinetics of binding of analyte (BSA-cSNK) in solution to two different binding sites on the surface (immobilized bivalent, monospecific 5E3) in comparison to murine 5E3 using biolayer interferometry (Octet RED96).

Binder	Kd
B1	0.463 nM
B2	1.18 nM
B3	0.33 nM
B4	0.557 nM

molecular target: T1, cSNK:BSA conjugate; experiment: BLI 2:1 fit, site 2 (kon2); 1.56 nM row
Procedure: as §1

Binder	kon
B1	6.56e+06 M⁻¹ s⁻¹
B3	1.42e+07 M⁻¹ s⁻¹
B4	4.44e+06 M⁻¹ s⁻¹

molecular target: T1, cSNK:BSA conjugate; experiment: BLI 2:1 fit, site 1; 25 nM row
Procedure: as §1

Binder	Kd	koff	kon
B1	0.463 nM	0.000825 s⁻¹	1.78e+06 M⁻¹ s⁻¹
B2	1.18 nM	0.000762 s⁻¹	644000 M⁻¹ s⁻¹
B3	0.33 nM	0.000428 s⁻¹	1.29e+06 M⁻¹ s⁻¹
B4	–	0.000386 s⁻¹	692000 M⁻¹ s⁻¹

molecular target: T1, cSNK:BSA conjugate; experiment: BLI 2:1 fit, site 1; 1.56 nM row
Procedure: as §1

Binder	Kd	koff	kon
B1	0.463 nM	0.000825 s⁻¹	1.78e+06 M⁻¹ s⁻¹
B3	0.33 nM	0.000428 s⁻¹	1.29e+06 M⁻¹ s⁻¹
B4	–	0.000386 s⁻¹	692000 M⁻¹ s⁻¹

molecular target: T1, cSNK:BSA conjugate; experiment: BLI 2:1 fit, site 1; 6.25 nM row
Procedure: as §1

Binder	Kd	koff	kon
B1	0.463 nM	0.000825 s⁻¹	1.78e+06 M⁻¹ s⁻¹
B2	1.18 nM	0.000762 s⁻¹	644000 M⁻¹ s⁻¹
B3	0.33 nM	0.000428 s⁻¹	1.29e+06 M⁻¹ s⁻¹
B4	–	0.000386 s⁻¹	692000 M⁻¹ s⁻¹

molecular target: T1, cSNK:BSA conjugate; experiment: BLI 2:1 fit, site 2 (kon2); 25 nM row
Procedure: as §1

Binder	kon
B1	6.56e+06 M⁻¹ s⁻¹
B2	5.28e+06 M⁻¹ s⁻¹
B3	1.42e+07 M⁻¹ s⁻¹
B4	4.44e+06 M⁻¹ s⁻¹

molecular target: T1, cSNK:BSA conjugate; experiment: BLI (Octet RED96), 2:1 kinetics, KD2, summary table
Procedure: as §1, §2

Binder	Kd
B1	0.182 nM
B2	6.39 nM
B4	0.394 nM

molecular target: T1, cSNK:BSA conjugate; experiment: BLI 2:1 fit, site 2 (KD2); 3.13 nM row
Procedure: as §1

Binder	Kd
B1	1.82 nM
B2	6.39 nM
B3	1.59 nM
B4	3.94 nM

molecular target: T1, cSNK:BSA conjugate; experiment: BLI 2:1 fit, site 2 (kdis2); 6.25 nM row
Procedure: as §1

Binder	koff
B1	0.012 s⁻¹
B2	0.0338 s⁻¹
B3	0.0226 s⁻¹
B4	0.0175 s⁻¹

molecular target: T1, cSNK:BSA conjugate; experiment: BLI 2:1 fit, site 2 (kdis2); 1.56 nM row
Procedure: as §1

Binder	koff
B1	0.012 s⁻¹
B3	0.0226 s⁻¹
B4	0.0175 s⁻¹

molecular target: T1, cSNK:BSA conjugate; experiment: BLI 2:1 fit, site 2 (kon2); 3.13 nM row
Procedure: as §1

Binder	kon
B1	6.56e+06 M⁻¹ s⁻¹
B2	5.28e+06 M⁻¹ s⁻¹
B3	1.42e+07 M⁻¹ s⁻¹
B4	4.44e+06 M⁻¹ s⁻¹

molecular target: T1, cSNK:BSA conjugate; experiment: BLI 2:1 fit, site 1; 100 nM row
Procedure: as §1

Binder	Kd	koff	kon
B2	1.18 nM	0.000762 s⁻¹	644000 M⁻¹ s⁻¹
B3	0.33 nM	0.000428 s⁻¹	1.29e+06 M⁻¹ s⁻¹
B4	–	0.000386 s⁻¹	692000 M⁻¹ s⁻¹
